Laboratory results as given in paper PMC11601597 (bioRxiv, 2024).

What was measured:
[1] = molecular target: K. pneumoniae OqxB (K. pneumoniae); test: crystal structure
[2] = molecular target: K. pneumoniae OqxB (K. pneumoniae); test: cryo-EM structure
cryo-EM structure = molecular target: the molecule itself; test: cryo-EM structure
crystal structure = molecular target: the molecule itself; test: crystal structure

Work on K. pneumoniae OqxB (natural protein) yielded a stoichiometry N [1] of 3 and a stoichiometry N [2] of 3.

B1: E. coli AcrB V612F (natural protein)
chain: MPNFFIDRPIFAWVIAIIIMLAGGLAILKLPVAQYPTIAPPAVTISASYPGADAKTVQDTVTQVIEQNMNGIDNLMYMSSNSDSTGTVQITLTFESGTDADIAQVQVQNKLQLAMPLLPQEVQQQGVSVEKSSSSFLMVVGVINTDGTMTQEDISDYVAANMKDAISRTSGVGDVQLFGSQYAMRIWMNPNELNKFQLTPVDVITAIKAQNAQVAAGQLGGTPPVKGQQLNASIIAQTRLTSTEEFGKILLKVNQDGSRVLLRDVAKIELGGENYDIIAEFNGQPASGLGIKLATGANALDTAAAIRAELAKMEPFFPSGLKIVYPYDTTPFVKISIHEVVKTLVEAIILVFLVMYLFLQNFRATLIPTIAVPVVLLGTFAVLAAFGFSINTLTMFGMVLAIGLLVDDAIVVVENVERVMAEEGLPPKEATRKSMGQIQGALVGIAMVLSAVFVPMAFFGGSTGAIYRQFSITIVSAMALSVLVALILTPALCATMLKPIAKGDHGEGKKGFFGWFNRMFEKSTHHYTDSVGGILRSTGRYLVLYLIIVVGMAYLFVRLPSSFLPDEDQGVFMTMVQLPAGATQERTQKVLNEVTHYYLTKEKNNVESVFAFNGFGFAGRGQNTGIAFVSLKDWADRPGEENKVEAITMRATRAFSQIKDAMVFAFNLPAIVELGTATGFDFELIDQAGLGHEKLTQARNQLLAEAAKHPDMLTSVRPNGLEDTPQFKIDIDQEKAQALGVSINDINTTLGAAWGGSYVNDFIDRGRVKKVYVMSEAKYRMLPDDIGDWYVRAADGQMVPFSAFSSSRWEYGSPRLERYNGLPSMEILGQAAPGKSTGEAMELMEQLASKLPTGVGYDWTGMSYQERLSGNQAPSLYAISLIVVFLCLAALYESWSIPFSVMLVVPLGVIGALLAATFRGLTNDVYFQVGLLTTIGLSAKNAILIVEFAKDLMDKEGKGLIEATLDAVRMRLRPILMTSLAFILGVMPLVISTGAGSGAQNAVGTGVMGGMVTATVLAIFFVPVFFVVVRRRFSRKNEDIEHSHTVDHH
B1 was tested, and the “stoichiometry N” value (cryo-EM structure) was 3.

B2: E. coli AcrB V612W (natural protein)
chain: MPNFFIDRPIFAWVIAIIIMLAGGLAILKLPVAQYPTIAPPAVTISASYPGADAKTVQDTVTQVIEQNMNGIDNLMYMSSNSDSTGTVQITLTFESGTDADIAQVQVQNKLQLAMPLLPQEVQQQGVSVEKSSSSFLMVVGVINTDGTMTQEDISDYVAANMKDAISRTSGVGDVQLFGSQYAMRIWMNPNELNKFQLTPVDVITAIKAQNAQVAAGQLGGTPPVKGQQLNASIIAQTRLTSTEEFGKILLKVNQDGSRVLLRDVAKIELGGENYDIIAEFNGQPASGLGIKLATGANALDTAAAIRAELAKMEPFFPSGLKIVYPYDTTPFVKISIHEVVKTLVEAIILVFLVMYLFLQNFRATLIPTIAVPVVLLGTFAVLAAFGFSINTLTMFGMVLAIGLLVDDAIVVVENVERVMAEEGLPPKEATRKSMGQIQGALVGIAMVLSAVFVPMAFFGGSTGAIYRQFSITIVSAMALSVLVALILTPALCATMLKPIAKGDHGEGKKGFFGWFNRMFEKSTHHYTDSVGGILRSTGRYLVLYLIIVVGMAYLFVRLPSSFLPDEDQGVFMTMVQLPAGATQERTQKVLNEVTHYYLTKEKNNVESVFAWNGFGFAGRGQNTGIAFVSLKDWADRPGEENKVEAITMRATRAFSQIKDAMVFAFNLPAIVELGTATGFDFELIDQAGLGHEKLTQARNQLLAEAAKHPDMLTSVRPNGLEDTPQFKIDIDQEKAQALGVSINDINTTLGAAWGGSYVNDFIDRGRVKKVYVMSEAKYRMLPDDIGDWYVRAADGQMVPFSAFSSSRWEYGSPRLERYNGLPSMEILGQAAPGKSTGEAMELMEQLASKLPTGVGYDWTGMSYQERLSGNQAPSLYAISLIVVFLCLAALYESWSIPFSVMLVVPLGVIGALLAATFRGLTNDVYFQVGLLTTIGLSAKNAILIVEFAKDLMDKEGKGLIEATLDAVRMRLRPILMTSLAFILGVMPLVISTGAGSGAQNAVGTGVMGGMVTATVLAIFFVPVFFVVVRRRFSRKNEDIEHSHTVDHH
With B2 the “stoichiometry N” value (cryo-EM structure) was 3.

B3: E. coli AcrB V612N (natural protein)
chain: MPNFFIDRPIFAWVIAIIIMLAGGLAILKLPVAQYPTIAPPAVTISASYPGADAKTVQDTVTQVIEQNMNGIDNLMYMSSNSDSTGTVQITLTFESGTDADIAQVQVQNKLQLAMPLLPQEVQQQGVSVEKSSSSFLMVVGVINTDGTMTQEDISDYVAANMKDAISRTSGVGDVQLFGSQYAMRIWMNPNELNKFQLTPVDVITAIKAQNAQVAAGQLGGTPPVKGQQLNASIIAQTRLTSTEEFGKILLKVNQDGSRVLLRDVAKIELGGENYDIIAEFNGQPASGLGIKLATGANALDTAAAIRAELAKMEPFFPSGLKIVYPYDTTPFVKISIHEVVKTLVEAIILVFLVMYLFLQNFRATLIPTIAVPVVLLGTFAVLAAFGFSINTLTMFGMVLAIGLLVDDAIVVVENVERVMAEEGLPPKEATRKSMGQIQGALVGIAMVLSAVFVPMAFFGGSTGAIYRQFSITIVSAMALSVLVALILTPALCATMLKPIAKGDHGEGKKGFFGWFNRMFEKSTHHYTDSVGGILRSTGRYLVLYLIIVVGMAYLFVRLPSSFLPDEDQGVFMTMVQLPAGATQERTQKVLNEVTHYYLTKEKNNVESVFANNGFGFAGRGQNTGIAFVSLKDWADRPGEENKVEAITMRATRAFSQIKDAMVFAFNLPAIVELGTATGFDFELIDQAGLGHEKLTQARNQLLAEAAKHPDMLTSVRPNGLEDTPQFKIDIDQEKAQALGVSINDINTTLGAAWGGSYVNDFIDRGRVKKVYVMSEAKYRMLPDDIGDWYVRAADGQMVPFSAFSSSRWEYGSPRLERYNGLPSMEILGQAAPGKSTGEAMELMEQLASKLPTGVGYDWTGMSYQERLSGNQAPSLYAISLIVVFLCLAALYESWSIPFSVMLVVPLGVIGALLAATFRGLTNDVYFQVGLLTTIGLSAKNAILIVEFAKDLMDKEGKGLIEATLDAVRMRLRPILMTSLAFILGVMPLVISTGAGSGAQNAVGTGVMGGMVTATVLAIFFVPVFFVVVRRRFSRKNEDIEHSHTVDHH
With B3 the “stoichiometry N” value (crystal structure) was 3.
